Results from article PMC3394726 (PLoS ONE, 2012).

Target: T1, human complement C1q (human, UniProt P02745;P02746;P02747)
T1 construct: source: purified from human plasma; endogenous, normal human serum (NHS); copies: + +
Assay: ELISA; SMSB3 or SMSB4 coated at 10 µg/ml; serial dilutions of normal human serum (0-100%) for 10, 20, 40 or 60 min at 37°C; bound complement factors detected with specific antibodies
Settings: one partner purified

T1 sequence (P02745 23-245, chain 1 of 3): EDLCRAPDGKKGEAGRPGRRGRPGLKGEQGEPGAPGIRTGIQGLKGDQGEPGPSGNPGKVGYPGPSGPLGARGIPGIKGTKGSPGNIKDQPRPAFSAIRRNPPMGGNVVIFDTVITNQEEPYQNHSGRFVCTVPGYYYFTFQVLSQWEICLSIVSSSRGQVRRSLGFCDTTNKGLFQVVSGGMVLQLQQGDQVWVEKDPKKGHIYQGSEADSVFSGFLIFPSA
T1 sequence (P02746 28-253, chain 2 of 3): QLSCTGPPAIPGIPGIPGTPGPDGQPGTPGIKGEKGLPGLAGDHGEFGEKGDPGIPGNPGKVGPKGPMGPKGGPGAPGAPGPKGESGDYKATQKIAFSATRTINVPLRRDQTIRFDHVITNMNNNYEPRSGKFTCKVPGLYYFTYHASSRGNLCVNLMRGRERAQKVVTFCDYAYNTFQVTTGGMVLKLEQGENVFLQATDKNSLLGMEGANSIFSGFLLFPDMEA
T1 sequence (P02747 29-245, chain 3 of 3): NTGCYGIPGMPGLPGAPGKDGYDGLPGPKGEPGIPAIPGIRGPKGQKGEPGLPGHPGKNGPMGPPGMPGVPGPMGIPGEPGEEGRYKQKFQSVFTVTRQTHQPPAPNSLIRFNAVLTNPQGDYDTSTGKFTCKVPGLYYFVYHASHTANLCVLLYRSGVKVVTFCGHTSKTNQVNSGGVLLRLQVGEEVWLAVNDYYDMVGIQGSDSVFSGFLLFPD

B1: scabies mite serpin SMSB4, wild type (natural protein)
chain: KPQHHSQSHQQPVLASDPNEDPLKALNLLQQQKQFTEHFFQQNNEKLNLLGGQEIIKCFDVNFTSNVLNNIDHISKIMIDGSRHFGLRLFQILNLFEPKTSSPGLVYSPISVWSTLILTYLGSDGVTEQELSQKLKLNQLPKPLVALAYRSLKWWKDFNVLKLMQNHTDATQVCSANKLYINDHLLVKDCFRTIFGDEIEMKSFSSRPQESLSEINDWVRVQTQGHIPNLLGPESISSNTNIVMINAVYFKSFWAQQFDSSKTKKQRFYVSMNEELEADMMTMDSVSVMYGISEELRASAVEIPYSNPDYSFLIILPDITRSLDSMIRTLTWNKIQLLLQNMYDDEVKLMIPKFRSEQEFELAGPLFSLGIKKLFDPRYANLNSIFMNSNNSRVALDSVIHKSFISVDEEGTEAAAATAVIFARSGRPAFPTEFIADRPFLYIIRDVSSNQLLFIGTVRRPYASQAIVA
notes: also called SMB4; SMSB4/wt
binding result: binds
